The target of series [1] is IP3R1 N-terminal domain (residues 1–667, human IP3R1/SI− co-ordinates), c-Myc- or HA-tagged, in HEK-293 cells (human). The experiment in a line: cross-linking; HEK-293 cell homogenates expressing c-Myc-tagged IP3R1 1-667 constructs, pre-treated with 10 mM DTT, without or with 1 or 10 μM IP3, incubated with glutaraldehyde for the indicated times; SDS/PAGE (6% gels), anti-c-Myc Western blot. (In western blotting, separated proteins are transferred to a membrane and probed.)

Series [2] concerns the target IP3R1^(1–667, K493A), IP3 binding-deficient mutant, c-Myc-tagged, in HEK-293 cells (human). The description is as above.
For series [3], the target named is calpain-cleaved ~150 kDa N-terminal fragment of native RyR1 from rabbit skeletal muscle SR (rabbit (endogenous in skeletal muscle SR)). Briefly: cross-linking; rabbit skeletal muscle SR pre-treated with 10 mM DTT, cleaved with calpain-2, centrifuged; resuspended SR pellet incubated with 0.0025% glutaraldehyde; SDS/PAGE (4% gels), Western blot with Ab2142.
The target is the same in series [4]. Briefly: cross-linking; rabbit skeletal muscle SR pre-treated with 10 mM DTT, cleaved with calpain-2, centrifuged; supernatant (liberated N-terminal fragment only) incubated with 0.0025% glutaraldehyde; SDS/PAGE (4% gels), Western blot with Ab2142.
Series [5] deals with the molecule itself. The experiment in a line: cross-linking; HEK-293 cell homogenates expressing c-Myc-tagged BT4LR1 or BT4LR3, pre-treated without or with 10 mM DTT, incubated with glutaraldehyde for the indicated times; SDS/PAGE (6% gels), anti-c-Myc Western blot.
Series [6] concerns the molecule itself. The experiment in a line: not stated; unpublished work (M. Seidel and S. Zissimopoulos).

Values joined by “and” are separate entries in the source; they are usually repeats but may differ in a detail not shown here. Equal entries are not always repeated.

A word on the stoichiometry N: it is the number of molecules, sites or subunits per partner or assembly. As for “IP3R1 N-terminal domain (residues 1–667, human IP3R1/SI− co-ordinates), c-Myc- or HA-tagged, in HEK-293 cells (domain or fragment)”, in series [1], the stoichiometry N came out at 4.
In the case of “IP3R1^(1–667, K493A), IP3 binding-deficient mutant, c-Myc-tagged, in HEK-293 cells (domain or fragment)”, the stoichiometry N in series [2] came to 4.
Take “calpain-cleaved ~150 kDa N-terminal fragment of native RyR1 from rabbit skeletal muscle SR (domain or fragment)”: the stoichiometry N in series [3] is 2 and 3 and 4; in series [4] it was 2 and 3 and 4.

B1: c-Myc-tagged RyR1 N-terminal fragment (residues 1–915), BT4LR1, in HEK-293 cells (domain or fragment, rabbit, UniProt P11716 1-915, looked up)
chain: MGDGGEGEDEVQFLRTDDEVVLQCSATVLKEQLKLCLAAEGFGNRLCFLEPTSNAQNVPPDLAICCFTLEQSLSVRALQEMLANTVEAGVESSQGGGHRTLLYGHAILLRHAHSRMYLSCLTTSRSMTDKLAFDVGLQEDATGEACWWTMHPASKQRSEGEKVRVGDDLILVSVSSERYLHLSTASGELQVDASFMQTLWNMNPICSCCEEGYVTGGHVLRLFHGHMDECLTISAADSDDQRRLVYYEGGAVCTHARSLWRLEPLRISWSGSHLRWGQPLRIRHVTTGRYLALTEDQGLVVVDACKAHTKATSFCFRVSKEKLDTAPKRDVEGMGPPEIKYGESLCFVQHVASGLWLTYAAPDPKALRLGVLKKKAILHQEGHMDDALFLTRCQQEESQAARMIHSTAGLYNQFIKGLDSFSGKPRGSGPPAGPALPIEAVILSLQDLIGYFEPPSEELQHEEKQSKLRSLRNRQSLFQEEGMLSLVLNCIDRLNVYTTAAHFAEYAGEEAAESWKEIVNLLYELLASLIRGNRANCALFSTNLDWVVSKLDRLEASSGILEVLYCVLIESPEVLNIIQENHIKSIISLLDKHGRNHKVLDVLCSLCVCNGVAVRSNQDLITENLLPGRELLLQTNLINYVTSIRPNIFVGRAEGSTQYGKWYFEVMVDEVVPFLTAQATHLRVGWALTEGYSPYPGGGEGWGGNGVGDDLYSYGFDGLHLWTGHVARPVTSPGQHLLAPEDVVSCCLDLSVPSISFRINGCPVQGVFEAFNLDGLFFPVVSFSAGVKVRFLLGGRHGEFKFLPPPGYAPCHEAVLPRERLRLEPIKEYRREGPRGPHLVGPSRCLSHTDFVPCPVDTVQIVLPPHLERIREKLAENIHELWALTRIEQGWTYGPVRDDNKRLHPCLVNFHSLPE
notes: ryanodine receptor 1 (RyR1), rabbit, residues 1-915; also called c-Myc–BT4LR1
In the case of B1, the “stoichiometry N” value in series [5] was determined as 4.

B2: truncated RyR2 N-terminal fragment (residues 1–654), of the unpublished observation (domain or fragment, human, UniProt Q92736 1-654, looked up)
chain: MADGGEGEDEIQFLRTDDEVVLQCTATIHKEQQKLCLAAEGFGNRLCFLESTSNSKNVPPDLSICTFVLEQSLSVRALQEMLANTVEKSEGQVDVEKWKFMMKTAQGGGHRTLLYGHAILLRHSYSGMYLCCLSTSRSSTDKLAFDVGLQEDTTGEACWWTIHPASKQRSEGEKVRVGDDLILVSVSSERYLHLSYGNGSLHVDAAFQQTLWSVAPISSGSEAAQGYLIGGDVLRLLHGHMDECLTVPSGEHGEEQRRTVHYEGGAVSVHARSLWRLETLRVAWSGSHIRWGQPFRLRHVTTGKYLSLMEDKNLLLMDKEKADVKSTAFTFRSSKEKLDVGVRKEVDGMGTSEIKYGDSVCYIQHVDTGLWLTYQSVDVKSVRMGSIQRKAIMHHEGHMDDGISLSRSQHEESRTARVIRSTVFLFNRFIRGLDALSKKAKASTVDLPIESVSLSLQDLIGYFHPPDEHLEHEDKQNRLRALKNRQNLFQEEGMINLVLECIDRLHVYSSAAHFADVAGREAGESWKSILNSLYELLAALIRGNRKNCAQFSGSLDWLISRLERLEASSGILEVLHCVLVESPEALNIIKEGHIKSIISLLDKHGRNHKVLDVLCSLCVCHGVAVRSNQHLICDNLLPGRDLLLQTRLVNHVSS
notes: may be the same construct as m10
Turning to B2, in series [6], the “stoichiometry N” value amounted to 4.

B3: c-Myc-tagged RyR3 N-terminal fragment (residues 1–911), BT4LR3, in HEK-293 cells (domain or fragment, rabbit, UniProt Q9TS33 1-911, looked up)
chain: MAEGGEGGEDEIQFLRTEDEVVLQCIATVHKEQRKFCLAAEGLGNRLCFLEPTSEAKFIPPDLCVCNFVLEQSLSVRALQEMLANTGENGGEGAAQGGGHRTLLYGHAILLRHSFSGMYLTCLTTSRSQTDKLAFDVGLREHATGEACWWTIHPASKQRSEGEKVRIGDDLILVSVSSERYLHLSISNGNIQVDASFMQTLWNVHPTCSGSSIEEGYLLGGHVVRLFHGHDECLTIPSTDQNDSQHRRIFYEAGGAGTRARSLWRVEPLRISWSGSNIRWGQAFRLRHLTTGHYLALTEDQGLLLQDRGKADTKSTAFSFRPSKETKEKLDSSHKRDIEGMGVPEIKYGDSVCFVQHIASGLWVTYKAQDAKTSRLGPLKRKVILHQEGHMDDGLTLQRCQREESQAARIIRNTTALFSQFVSGNNRTAAPVTLPIEEVLQTLHDLIAYFQPPEEEMQHEDKQNKLRSLKNRQNLFKEEGMLALVLNCIDRLNIYNSVAHFAGIAREESGMAWKEVLSLLYKLLAALIRGNRNTCAQFSNNLDWLISKLDRLESSSGILEVLHCILIESPEALNLIAEGHIKSIISLLDKHGRNHKVLDVLCSLCLCNGVAVRANQNLICDNLLPRRNLLLQTRLINDVTSIRPNIFLGVAEGSAQYKKWYFELIIDQVDPFLTAEPTHLRVGWASSSGYAPYPGGGEGWGGNGVGDDLYSYGFDGLHLWSGRIPRAVASINQHLLKSDDVVSCCLDLGVPSISFRINGQPVQGMFENFNTDGLFFPVMSFSAGVKVRFLMGGRHGEFKFLPPSGYAPCYEALLPKEKMRLEPVKEYKRDAEGVRDLLGTTQFLSQASFIPCPIDTSQVVLPPHLEKIRDRLAENIHELWGMNKIELGWTFGKMRDDNKRQHPCLVEFSKL
notes: ryanodine receptor 3 (RyR3), rabbit, residues 1-911; also called c-Myc–BT4LR3
Consider B3, for which, in series [5], the “stoichiometry N” value came to 4.
